# Experimental data as given in publication PMC9040844, “Escherichia coli Uses a Dedicated Importer and Desulfidase To Ferment Cysteine” (mBio, 2022).
# B1: CyuA (Escherichia coli K-12) (protein)
# chain: MFDSTLNPLWQRYILAVQEEVKPALGCTEPISLALAAAVAAAELEGPVERVEAWVSPNLMKNGLGVTVPGTGMVGLPIAAALGALGGNANAGLEVLKDATAQAIADAKALLAAGKVSVKIQEPCDEILFSRAKVWNGEKWACVTIVGGHTNIVHIETHDGVVFTQQACVAEGEQESPLTVLSRTTLAEILKFVNEVPFAAIRFILDSAKLNCALSQEGLSGKWGLHIGATLEKQCERGLLAKDLSSSIVIRTSAASDARMGGATLPAMSNSGSGNQGITATMPVVVVAEHFGADDERLARALMLSHLSAIYIHNQLPRLSALCAATTAAMGAAAGMAWLVDGRYETISMAISSMIGDVSGMICDGASNSCAMKVSTSASAAWKAVLMALDDTAVTGNEGIVAHDVEQSIANLCALASHSMQQTDRQIIEIMASKAR
# notes: full ORF in pET16b, N-terminal His10 tag kept, about 47 kDa; expressed in E. coli SR011 (BL21(DE3) katG katE) with isc operon
# Substrate: N[C@@H](CS)C(=O)O
# Test: purified protein
# Format: biochemical, Escherichia coli
# Details: 50 mM Tris pH 7.6, room temperature, anaerobic, Fe(II)/DTT-reactivated [4Fe-4S] enzyme
protein,measurement,value
B1,Km,200 µM
